Experimental findings from patent US20030099969A1 (published 2003) are described below.

Series [1] concerns the target T1, T7-tagged full length Ipaf.
T1 chain: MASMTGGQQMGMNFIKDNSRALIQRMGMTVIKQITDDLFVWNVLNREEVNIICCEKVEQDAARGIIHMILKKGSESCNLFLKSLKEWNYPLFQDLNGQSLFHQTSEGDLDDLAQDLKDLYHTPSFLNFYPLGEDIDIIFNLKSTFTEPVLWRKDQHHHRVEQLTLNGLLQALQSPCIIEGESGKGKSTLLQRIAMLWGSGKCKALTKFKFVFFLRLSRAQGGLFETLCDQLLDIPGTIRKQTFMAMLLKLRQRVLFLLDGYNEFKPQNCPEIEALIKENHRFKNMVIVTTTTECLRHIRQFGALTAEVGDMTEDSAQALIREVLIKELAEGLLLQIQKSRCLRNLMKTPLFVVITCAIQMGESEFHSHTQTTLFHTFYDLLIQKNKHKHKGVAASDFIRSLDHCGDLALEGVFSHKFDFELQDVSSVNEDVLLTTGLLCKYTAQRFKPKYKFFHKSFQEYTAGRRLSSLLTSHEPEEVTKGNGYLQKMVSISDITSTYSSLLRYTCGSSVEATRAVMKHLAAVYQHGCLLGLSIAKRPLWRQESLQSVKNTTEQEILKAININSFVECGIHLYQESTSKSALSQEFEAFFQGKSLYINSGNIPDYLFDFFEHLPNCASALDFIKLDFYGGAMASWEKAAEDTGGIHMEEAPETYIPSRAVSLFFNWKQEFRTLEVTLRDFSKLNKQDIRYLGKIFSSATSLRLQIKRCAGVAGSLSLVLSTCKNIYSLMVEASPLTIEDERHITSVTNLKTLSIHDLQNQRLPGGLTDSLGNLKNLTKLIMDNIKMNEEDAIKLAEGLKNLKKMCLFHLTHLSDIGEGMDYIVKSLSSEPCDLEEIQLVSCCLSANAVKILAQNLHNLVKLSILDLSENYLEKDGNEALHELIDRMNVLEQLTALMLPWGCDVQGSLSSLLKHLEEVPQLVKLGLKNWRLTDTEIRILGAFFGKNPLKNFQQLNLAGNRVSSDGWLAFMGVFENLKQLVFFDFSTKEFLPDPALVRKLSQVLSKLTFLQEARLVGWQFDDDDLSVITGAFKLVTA

For another series, the target named is T2, Ipaf 1-661.
T2 chain: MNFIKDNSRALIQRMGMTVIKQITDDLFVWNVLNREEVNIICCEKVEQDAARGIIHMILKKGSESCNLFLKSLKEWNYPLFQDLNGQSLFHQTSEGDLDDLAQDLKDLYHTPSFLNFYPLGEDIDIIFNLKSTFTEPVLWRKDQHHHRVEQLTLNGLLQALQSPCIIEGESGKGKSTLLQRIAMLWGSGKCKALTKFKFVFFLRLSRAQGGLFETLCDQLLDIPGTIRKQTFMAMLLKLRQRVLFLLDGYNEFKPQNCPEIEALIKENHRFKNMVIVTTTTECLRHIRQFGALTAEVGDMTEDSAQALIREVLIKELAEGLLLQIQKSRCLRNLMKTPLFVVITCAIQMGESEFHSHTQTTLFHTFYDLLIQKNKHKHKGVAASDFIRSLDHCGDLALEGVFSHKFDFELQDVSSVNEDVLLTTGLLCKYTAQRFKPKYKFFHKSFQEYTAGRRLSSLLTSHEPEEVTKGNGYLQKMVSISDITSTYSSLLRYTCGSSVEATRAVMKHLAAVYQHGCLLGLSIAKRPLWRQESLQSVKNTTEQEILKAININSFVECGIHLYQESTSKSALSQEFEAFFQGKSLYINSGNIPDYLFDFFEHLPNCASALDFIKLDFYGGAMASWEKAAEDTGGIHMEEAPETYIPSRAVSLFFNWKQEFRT

Series [2] deals with T3, T7-tagged full length Ipaf (human, UniProt Q9NPP4 1-1024).
T3 construct: also called T7-Ipaf; T7-tagged Ipaf
Put plainly: co-immunoprecipitation from 293T lysates (IP anti-Flag, blot anti-T7). As for the experimental part: 24 hours following transfection, cells were lysed in 50 mM Tris/HCl pH 7.6, 150 mM NaCl containing 0.5% NP-40, 10 μg.ml⁻¹ leupeptin and aprotinin and 0.1 mM PMSF and clarified by centrifugation at 15,000 g for 15 min. The clarified lysates were preabsorbed on protein G-Sepharose (Pharmacia) and then incubated with anti-FLAG-M5 monoclonal antibody (Eastman Kodak Co.) for 2 hours, followed by protein G-Sepharose agarose IgG beads. Immune complexes were washed extensively in the lysis buffer and eluted by boiling in an SDS sample buffer. The eluted proteins were resolved by SDS-PAGE and detected by Western analysis with a horseradish peroxidase-conjugate T7-antibody (Novagen). GST Pull-down assays were performed as described (Ahmad et al., Cancer Res 57:615-9, 1997).
24 hours following transfection, cells were lysed and the lysates immunoprecipitated (IP) with an anti-Flag antibody. The immunoprecipitates were immunoblotted (IB) with an anti-T7 antibody. Expression of T7-Ipaf or Flag-tagged constructs was determined by immunoblotting (IB) with anti-T7 or anti-Flag antibodies, respectively. […] This association was dependent on the N-terminal CARD as deletion of this domain prevented the CARD-truncated Ipaf mutant from interacting with the full-length Ipaf. Moreover, the epitope-tagged CARD of Ipaf was able to co-immunoprecipitate the full-length protein.

B1: N-terminally Flag-tagged procaspase-1 (protein)
chain: DYKDDDDKMADKVLKEKRKLFIRSMGEGTINGLLDELLQTRVLNKEEMEKVKRENATVMDKTRALIDSVIPKGAQACQICITYICEEDSYLAGTLGLSADQTSGNYLNMQDSQGVLSSFPAPQAVQDNPAMPTSSGSEGNVKLCSLEEAQRIWKQKSAEIYPIMDKSSRTRLALIICNEEFDSIPRRTGAEVDITGMTMLLQNLGYSVDVKKNLTASDMTTELEAFAHRPEHKTSDSTFLVFMSHGIREGICGKKHSEQVPDILQLNAIFNMLNTKNCPSLKDKPKVIIIQACRGDSPGVVWFKDSVGVSGNLSLPTTEEFEDDAIKKAHIEKDFIAFCSSTPDNVSWRHPTMGSVFIGRLIEHMQEYACSCDVEEIFRKVRFSFEQPDGRAQMPTTERVTLTRCFYLFPGH
With B1, the “proteolytic activation (processing) of procaspase-1, anti-Flag immunoblot of 293T lysates” value was “Co-expression of the LRR-truncated Ipaf mutant, but not the full-length protein, was able to induce proteolytic activation of procaspase-1” in series [1] and “Co-expression of the LRR-truncated Ipaf mutant, but not the full-length protein, was able to induce proteolytic activation of procaspase-1” with Ipaf 1-661.

B2: Flag-tagged CARD-deleted mutant (residues 80-1024) of Ipaf (other)
chain: DYKDDDDKLFQDLNGQSLFHQTSEGDLDDLAQDLKDLYHTPSFLNFYPLGEDIDIIFNLKSTFTEPVLWRKDQHHHRVEQLTLNGLLQALQSPCIIEGESGKGKSTLLQRIAMLWGSGKCKALTKFKFVFFLRLSRAQGGLFETLCDQLLDIPGTIRKQTFMAMLLKLRQRVLFLLDGYNEFKPQNCPEIEALIKENHRFKNMVIVTTTTECLRHIRQFGALTAEVGDMTEDSAQALIREVLIKELAEGLLLQIQKSRCLRNLMKTPLFVVITCAIQMGESEFHSHTQTTLFHTFYDLLIQKNKHKHKGVAASDFIRSLDHCGDLALEGVFSHKFDFELQDVSSVNEDVLLTTGLLCKYTAQRFKPKYKFFHKSFQEYTAGRRLSSLLTSHEPEEVTKGNGYLQKMVSISDITSTYSSLLRYTCGSSVEATRAVMKHLAAVYQHGCLLGLSIAKRPLWRQESLQSVKNTTEQEILKAININSFVECGIHLYQESTSKSALSQEFEAFFQGKSLYINSGNIPDYLFDFFEHLPNCASALDFIKLDFYGGAMASWEKAAEDTGGIHMEEAPETYIPSRAVSLFFNWKQEFRTLEVTLRDFSKLNKQDIRYLGKIFSSATSLRLQIKRCAGVAGSLSLVLSTCKNIYSLMVEASPLTIEDERHITSVTNLKTLSIHDLQNQRLPGGLTDSLGNLKNLTKLIMDNIKMNEEDAIKLAEGLKNLKKMCLFHLTHLSDIGEGMDYIVKSLSSEPCDLEEIQLVSCCLSANAVKILAQNLHNLVKLSILDLSENYLEKDGNEALHELIDRMNVLEQLTALMLPWGCDVQGSLSSLLKHLEEVPQLVKLGLKNWRLTDTEIRILGAFFGKNPLKNFQQLNLAGNRVSSDGWLAFMGVFENLKQLVFFDFSTKEFLPDPALVRKLSQVLSKLTFLQEARLVGWQFDDDDLSVITGAFKLVTA
notes: also called Flag-?CARD Ipag; CARD-truncated Ipaf mutant
Take B2: in series [2], the binding result is listed as “no binding”.
